Assay results taken from patent publication US20030175703.
Read-outs that look alike come from different tables or passages of the source.

Experiments:
[1] = molecular target: coagulation factor IXa (FIXa) (UniProt P00740+P00740); conditions: FIG. 20 legend gives >>5 uM
E2F [2] = tested on: E2F
E2F [3] = tested on: E2F; remark: listed apart in the source
[4] = molecular target: coagulation factor Xa (FXa) (UniProt P00742+P00742)
Sequence of coagulation factor Xa (FXa) (P00742 41-179, chain 1 of 2): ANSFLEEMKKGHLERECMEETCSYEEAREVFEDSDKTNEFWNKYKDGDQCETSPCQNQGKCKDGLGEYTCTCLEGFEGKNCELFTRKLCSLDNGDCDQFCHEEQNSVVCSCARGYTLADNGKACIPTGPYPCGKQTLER
Sequence of coagulation factor Xa (FXa) (P00742 235-488, chain 2 of 2): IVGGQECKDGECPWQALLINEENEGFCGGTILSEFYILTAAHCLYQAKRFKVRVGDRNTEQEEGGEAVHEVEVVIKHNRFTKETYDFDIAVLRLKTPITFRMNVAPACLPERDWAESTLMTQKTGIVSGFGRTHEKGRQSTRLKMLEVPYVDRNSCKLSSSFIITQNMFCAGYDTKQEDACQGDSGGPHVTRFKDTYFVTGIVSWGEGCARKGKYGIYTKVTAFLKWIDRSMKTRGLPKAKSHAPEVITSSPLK

Sequence of coagulation factor IXa (FIXa) (P00740 47-191, chain 1 of 2): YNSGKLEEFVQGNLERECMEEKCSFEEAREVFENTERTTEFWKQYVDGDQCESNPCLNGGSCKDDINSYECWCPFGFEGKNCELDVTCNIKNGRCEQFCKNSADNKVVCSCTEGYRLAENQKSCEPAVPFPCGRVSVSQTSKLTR
Sequence of coagulation factor IXa (FIXa) (P00740 227-461, chain 2 of 2): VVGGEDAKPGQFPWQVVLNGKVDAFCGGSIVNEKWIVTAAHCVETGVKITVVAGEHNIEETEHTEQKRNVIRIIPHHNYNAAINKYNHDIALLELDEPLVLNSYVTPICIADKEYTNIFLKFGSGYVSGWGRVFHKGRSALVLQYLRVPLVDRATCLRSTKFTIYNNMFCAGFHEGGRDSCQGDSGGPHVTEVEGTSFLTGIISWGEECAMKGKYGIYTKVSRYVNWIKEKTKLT

Substance	Kd (E2F [2]; random region only)	also measured
9.3tM		Kd [1]: > 10000 nM
AAUGGAAUCACUGAAGGCCCUCCGUAGCACCUAACACAGU [E2F aptamer 221]	1.5 nM	
ACCUCGACCCUUCACCUGACUCUCCCAGAAGUUCUGUUUC [E2F aptamer 219]	2 nM	
AUCCCCGCCGUAAGCCGUCCUGAUGGACACCACACGCCGC [E2F aptamer 226]		Kd (E2F [2]; random region only, table and listing differ near 5' end): 2 nM
CAAGCGCUGAAACCAAUGCACCCCACCCCACACUGGUGUAC [E2F aptamer 204]	1.25 nM	
CAAGCGUAUACCCUACCCACACUGAGCUACAUUGCGCUGA [E2F aptamer 213]	8 nM	
CACUGAACGAAUGGCAACCGCCAAACCCUACCCACACUGG [E2F aptamer 212]		Kd (E2F [2]; listed as assignment inferred): 0.2 nM
CAGAUUACCCUACCCACACUGCGUGCGGACAACCAUUGGC [E2F aptamer 201]	0.4 nM	
CCACCCGAAGCAAAUCAAGCCCGACGGCGCUCGGACCAAC [E2F aptamer 217]	15 nM	
CGAACGAACUGUGGACCCUACCCACACUGGGCCAAGCGAU [E2F aptamer 207]	0.4 nM	
CGUCACUCCGUCCCAGCCGACGAAGUCCGUAAUUCCUCCA [E2F aptamer 216]	45 nM	
GCACUAAACUUCGAUUACCCCCCACCCACACUGGCUGCAC [E2F aptamer 200]	4 nM	
GCAUCCUGCCAGCGGCGACGGACCUUCGCCCACAGGCCUC [E2F aptamer 222]	2 nM	
GCCGAGAGUGAGUGACCACAACCCCGCCCACACUGGAAUA [E2F aptamer 214]	1.5 nM	
GCUGCCGCGCCUGGACCCCACCCACAUAUGGGCCACACAC [E2F aptamer 189]		Kd (E2F [2]; random region only, listing prints T for U): 1.5 nM
GGGAGAGAGGAAGAGGGAGGGAAAGCACACGAAGCCCCAGCAAAACCCCACAGGCAAACCCAGAGGCGAAGACGGACCCCCC [E2F 10-3 / 10-7 / 10-11 / 10-12]		Kd (E2F [3]; printed sequence appears to lack U residues (compare SEQ 223)): 1 nM
GGGAGAGAGGAAGAGGGAGGGAAGGAACACGAAGGCCCCCGAGCACCAACACAGCAAACCCAGAGGCGAAGACGGACCCCCC [E2F 10-1 / 10-8]		Kd (E2F [3]; printed sequence appears to lack U residues (compare SEQ 221)): 1.5 nM
GGGAGAGAGGAAGAGGGAGGGACCCCGCCGAAGCCGCCGAGGACACCACACCCGCCAAACCCAGAGGCGAAGACGGACCCCCC [E2F 10-6]		Kd (E2F [3]; printed sequence appears to lack U residues (compare SEQ 226)): 2 nM
GGGAGAGAGGAAGAGGGAGGGAGAAACACAGAAGCCCGCGCGACACCCCACGCAAACCCAGAGGCGAAGACGGACCCCCC [E2F 10-4]		Kd (E2F [3]; printed sequence appears to lack U residues (compare SEQ 224)): 5 nM
GGGAGAGAGGAAGAGGGAGGGCAAACCACAGACCCAACGCAGGAGCACCCACCCACACGGGACAGCAAACCCAGAGGCGAAGACGGACCCCCC [E2F 10-5]		Kd (E2F [3]; printed sequence appears to lack U residues (compare SEQ 225)): 2.5 nM
GGGAGAGAGGAAGAGGGAGGGGCACCGCCAGCGGCGACGGACCCGCCCACAGGCCCCAAACCCAGAGGCGAAGACGGACCCCCC [E2F 10-2]		Kd (E2F [3]; printed sequence appears to lack U residues (compare SEQ 222)): 3 nM
GGGAGAGAGGAAGAGGGAUGGGAAAAUACGCCANNCGAGAUUAUACUUGGCCCCGCUAAUACCAUAACCCAGAGGUCGAU [D6-6]		Kd [4]: 3.1 nM
GGGAGAGAGGAAGAGGGAUGGGAGUCCGACUGGAGAACANGUACUCUAUAAGCACUUNCAUNCANCAUAACCCAGAGGUCGAU [E10-7]		Kd [4]: 69.5 nM
GGGAGAGAGGAAGAGGGAUGGGCCAUUGCUNCCCUGAACANGGGCNCCACNCCGCCUNCACAGUCAUAACCCAGAGGUCGAU [E10-1]		Kd [4]: 51.7 nM
GGGAGAGAGGAAGAGGGAUGGGNGAUUAGCCCNAGCGAGAUANUACUUGGCCCCGCUACNUCCAUAACCCAGAGGUCGAU [D7-8]		Kd [4]: 14.5 nM
UAUGAAAUCACAGAAGCCCGCGUUCGACACCUCCACUGUU [E2F aptamer 224]	3 nM	
UUAUAUAGCACACUGAAGCCCUCAGCAAAACCUCCACAGG [E2F aptamer 223]	1.5 nM	
UUUCCUAUGGCGAUAACUUCAGCCACGCCGGCGCCCCGUG [E2F aptamer 215]	30 nM	
